In PMC7586219 one finds stoichiometry N data, which are given here for two substances.

Assay [1] addresses Orbicella faveolata caspase-3b (Orbicella faveolata). Nature of the assay: SEC; Superdex75 Increase 10/300GL; protein 1-5 mg/ml, 200 ul loaded; 30 mM potassium phosphate, pH 7.5, 1 mM DTT; column calibrated with the LMW calibration kit; protomer to dimer. For orientation: In gel filtration, larger molecules generally elute earlier.
Assay [2] deals with Porites astreoides caspase-3 (Porites astreoides). The assay is described as above.

By stoichiometry N is commonly meant a count of units in the complex or per binding partner.

The substance Orbicella faveolata caspase-3b (enzyme) returned a stoichiometry N in assay [1] of 2. As for Porites astreoides caspase-3 (enzyme), in assay [2], the stoichiometry N was 2.
